Numbering of substitutions follows the chain as printed.
B1: PMP13A1 (VHH)
VHH: EVQLVESGGGLVQPGGSLRLSCAASGLTLDYYALGWFRQAPGKEREGVSCISSADHSTTYADSVKGRFTISWDNAKNTVYLQMNSLKPEDTAVYYCAADPALGCYSGNYYPRYDYWGQGTQVTVSS
B2: PMP19E2 (VHH)
VHH: B1 VHH with A54S, S57T, A61T, V79L, N108S, Y115F
B3: PMP13C1 (VHH)
VHH: EVQLVESGGGLVQPGGSLRLSCEASGFTWDYYVIGWFRQAPGKEREGLSCISSDGSTTYADSVKGRFTISRDNAKNTVYLQMNSLEPEDTAVYYCATDPALGCYSGSYYPRYDYWGQGTQVTVSS
B4: PMP23E5 (VHH)
VHH: EVQLMESGGGLVQAGGSLRLSCAASGGTFSSYAMGWFRQAPGEERDFVAAIGWSGNSPYYAQFVKGRFTISRDNAKNTVHLQMNSLKPEDTAVYYCAAAHNTMGSDYEGYDYWGQGTQVTVSS
B5: PMP13D1 (VHH)
VHH: EVQLVESGGGLVQPGGSLRLSCATSGFTEDYYVIGWFRQAPGKEREGVSCMSSSGDSTTYADSVKGRFTISRDNAKNMVYLQMTSLKPEDTAVYYCAADFALGCYSGSYYPRYDYWGQGTQVTVSS
B6: PMP13E12 (VHH)
VHH: EVQLVESGGGLVQAGGSLRLSCAASGRTFSRYIMGWFRQAPGKEREFVGAISRSGDITSFADFVKGRFTMSRDNAKNTLYLQMNSLEPEDTAVYSCAANSDTYYIYSDIVVPERYDYWGQGTQVTVSS
B7: PMP13B4 (VHH)
VHH: EVQLVESGGGLVQAGGSLRLSCAASGFTFDDYAIGWFRQAPGKEREAVSCISSSDGSTYYADSVKGRFTISSDNAKNMVYLQMNSLKPEDTAVYYCAADLLRTAVGCLDYRGTYYPRTTMDYRGKGTLVTVSS
B8: PMP8B10 (VHH)
VHH: EVQLVESGGGLVQAGASLRLSCAASGLAFSRYAMGWFRQAPGKERESVAAISSSGDNIYYADSVKGQFTMSRDNAKSSVYLQMINLKPEDTAVYYCAATSPLFVASDYFEASRYGYWGQGTQVTVSS
B9: LG192C10 (VHH)
VHH: EVQLVESGGGLVQAGGSLRLSCAASEGYFRNYMVGWFRQAPGGERMFVAAISDTAYYADSVKGRFTISRDNAKNTVYLPMNSLKPEDTAVYYCAAAPKSWGTWPLVADTRSYHFWGQGTQVTVSS
B10: LG192H1 (VHH)
VHH: EVQLVESGGGLVQAGGSLRLSCAASGIIFSTNHMGWYRRAPGKQRELVGTINRGDSPYYADSVKGRFTISRDNAKNMVYLQMNSLKPEDTAVYYCNAGYIYWGQGTQVTVSS
B11: LG192F2 (VHH)
VHH: EVQLVESGGGLVQAGGSLRLSCEASGRTFSPIAMGWFRQAPGKEREFVAVVTRWSGARTVYADSVKGRFTISRDNAENTVYLQMNSLKPEDTAVYTCAADSTNRNSGAIYYTWAYDYWGQGTQVTVSS
B12: LG192C6 (VHH)
VHH: B11 VHH with F29E, S30R, P31Y, I32Q, S106R
B13: LG191D3 (VHH)
VHH: EVQLVESGGGLVQAGGSLRLSCEASGRTYSRYGMGWFRQAPGKEREFVAAVSRLSGPRTVYADSVKGRFTISRDNAENTVYLQMNSLKPEDTAVYTCAAELTNRNSGAYYYAWAYDYWGQGTQVTVSS
B14: LG192H2 (VHH)
VHH: B11 VHH with P31N, I32Y, A57G, I109W, Y117H
B15: LG192C4 (VHH)
VHH: EVQLVESGGGLVQAGGSLRLSCEASGRTFSSYAMVGWFRQAPGKEREFVAAVTRWSGARTVYADSVKGRFTISRDNAENTVYLQMNSLKPEDTAVYTCAADSTNRNSGAVYYSWAYDYWGQGTQVTVSS
B16: LG191B9 (VHH)
VHH: EVQLVESGGGLVQAGGSLRLSCAASGRTFSSSFMAWFRQVLGSDREFVGGISPGGRFTYYADSRKGRFTISGDNANNTVYLQMHSVKPEDTATYYCAADTQFSGYVPKETNEYDYWGQGTQVTVSS
B17: LG192B1 (VHH)
VHH: EVQLVESGGGLVQPGGSLRLSCAASGLTFRNYAIGWFRQAPGKEREGVSCINSGGSITDYLDSVKGRFAISRDNAKSTVYLQMNSLKPEDTAVYYCATDLTSSCPIYSGTDYWGKGTLVTVSS
B18: LG192A8 (VHH)
VHH: EVQLVESGGGLVQAGGSLRLSCAASERTVIAYTMGWFRRAPGKERDFVAAMNWNGGNTIYADSAKGRFTISRDNAKNTVYLQMNSLKAEDTAVYYCAARPRFWGSYEYDYWGQGTQVTVSS
B19: LG191E4 (VHH)
VHH: EVQLVESGGGLVQAGGSLRLSCAASGPTFSADTMGWFRQAPGKEREFVATIPWSGGIAYYSDSVKGRFTMSRDNAKNTVDLQMNSLKPEDTALYYCAGSSRIYIYSDSLSERSYDYWGQGTQVTVSS
B20: PMP8A1 (VHH)
VHH: EVQLVESGGGLVQPGGSLRVSCAASGFTFNDYIMGWFRQAPGKERMFIAAISGTGTIKYYGDLVRGRFTISRDNAKNTVYLRIDSLNPEDTAVYYCAARQDYGLGYRESHEYDYWGQGTQVTVSS

target: T1, FTM-NN protein (membrane anchorless form of the Long fusion protein of hRSV, 70 kDa) (human respiratory syncytial virus, …, UniProt P12568 26-524); test: competition ELISA, periplasmic extract diluted 1:100, competitor 101F Fab

Binder | % Inhibition 101F Fab (1:100 PE)
B1 | 74%
B2 | 74%
B3 | 57%
B4 | 37%
B5 | 78%
B6 | 74%
B7 | 82%
B8 | 56%

target: T2, hRSV FTM- protein (membrane anchorless form of the fusion protein, 70 kDa) (human respiratory syncytial virus, UniProt P12568 26-524); test: SPR (Biacore T100), FTM- amine-coupled on CM5 chip, 1:1 Langmuir fit
T2 construct: extracellular domain

Binder | Kd | koff | kon
B9 | 3.49 nM | 0.000613 s⁻¹ | 175000 M⁻¹ s⁻¹
B10 | 3.72 nM | 0.00611 s⁻¹ | 1.65e+06 M⁻¹ s⁻¹
B11 | 7.14 nM | 0.00577 s⁻¹ | 807000 M⁻¹ s⁻¹
B12 | 7 nM | 0.00808 s⁻¹ | 1.15e+06 M⁻¹ s⁻¹
B13 | 2.05 nM | 0.00324 s⁻¹ | 1.59e+06 M⁻¹ s⁻¹
B14 | 15.4 nM | 0.0128 s⁻¹ | 829000 M⁻¹ s⁻¹
B15 | 7.47 nM | 0.00846 s⁻¹ | 1.13e+06 M⁻¹ s⁻¹
B16 | 25.4 nM | 0.00492 s⁻¹ | 194000 M⁻¹ s⁻¹
B17 | 55.5 nM | 0.0127 s⁻¹ | 229000 M⁻¹ s⁻¹
B18 | 2.91 nM | 0.000937 s⁻¹ | 322000 M⁻¹ s⁻¹
B19 | 0.7 nM | 0.000208 s⁻¹ | 298000 M⁻¹ s⁻¹

target: T1, FTM-NN protein (membrane anchorless …); test: competition ELISA, periplasmic extract diluted 1:300, competitor 101F Fab

Binder | % Inhibition 101F Fab (1:300 PE)
B1 | 46%
B2 | 27%
B3 | 37%
B4 | 16%
B20 | 55%
B5 | 52%
B6 | 28%
B7 | 47%
B8 | 31%

target: T1, FTM-NN protein (membrane anchorless …); test: competition ELISA, periplasmic extract diluted 1:1000, competitor 101F Fab

Binder | % Inhibition 101F Fab (1:1000 PE)
B1 | 13%
B2 | 5%
B3 | 9%
B20 | 20%
B5 | 16%
B6 | 8%
B7 | 20%
B8 | 6%

target: T1, FTM-NN protein (membrane anchorless …); test: ELISA, periplasmic extract on immobilised F protein; signal as fold over blank

Binder | Binding RSV-A, Fold blanc
B1 | 2.9 fold over blank
B2 | 3.5 fold over blank
B3 | 3 fold over blank
B4 | 3.4 fold over blank
B20 | 3.7 fold over blank
B5 | 3.1 fold over blank
B6 | 3.7 fold over blank
B7 | 2.7 fold over blank
B8 | 3.5 fold over blank

Reference: patent publication US20200123233A1 (published 2020)
